# Assay results reported in patent publication US8796227B2, “Peptides for inhibiting chemokine binding to chemokine receptors” (Biokine Therapeutics Ltd., priority 2002, dated 2014).
# Entries after “also recorded” stand apart in the source; their conditions may differ.
# How the values were obtained:
# Human MCP-1 = target: T1, Human MCP-1 (Homo sapiens, UniProt P13500); experiment: ELISA analysis of the synthetic chemokine-binding peptide; settings: chemokine-coated wells, specific binding = at least two fold of binding to control proteins (BSA, Actin, Fibronectin)
# T1 construct: purchased PeproTech, Inc. 300-04
# Description: (§1) Recombinant chemokines were ordered from PeproTech, Inc. (Rocky Hill, N.J., USA). Human SDF-1α (Cat. No. 300-28A), human MIG (Cat. No. 300-26) and human IL-8, (72 amino acids) (Cat. No. 200-08M), belong to the alpha-chemokines (C-X-C) family. Human MCP-1 (MCAF) (Cat. No. 300-04) and human Eotaxin (Cat No. 300-21) belong to the beta-chemokines (C-C family). All chemokines were prepared according to the company recommendations.
# (§2) Peptides were synthesized in the Weizmann Institute of Science, Rehovot, Israel, in order to perform tests for characterization of their influence on the biological activity of the chemokines. The format of the various synthesized peptides was as follows: The cyclic peptides, ACX7CGGGSK-biotin-G and the linear peptides, X12GGGSK-biotin-G. The peptides were biotinylated on their C-termini; the biotin will serve as a detector during the following experiments. Each synthetic peptide was dissolved to concentration of 1 mg/ml (˜0.6 mM) in 4% DMSO (Dimethyl Sulphoxide, Sigma, Cat. # D-2650).
# (§3) NUNC-Immuno™ MaxiSorp™ plates (Cat. No. 4-42404) were coated with the appropriate chemokine (0.1 ml/well, 0.1-1.0 μg/ml in 0.1 M NaHCO3, pH 8.6), overnight at 4° C. The plates were then blocked with 0.2 ml/well of blocking buffer (5 mg/ml BSA in 0.1 NaHCO3). Control wells were treated with blocking buffer alone, with no addition of target protein (chemokine). The plates were washed 6 times with PBST (0.1% Tween 20 in PBS), followed by incubation for 45 minutes at room temperature with 10-fold serial dilutions of individual synthetic peptides (10pg-10 μg) with 1% BSA (PBST-BSA)/well. After the plates were washed 6 times with PBST, the bound peptides were probed by HRP-SA Conjugate, diluted 1:10,000 to 1:20,000 in PBST-BSA, 0.1 ml/well for 45 minutes at room temperature. The target-bound synthetic peptides probed with HRP-SA were quantified by DAKO TMB one-step substrate system, followed by the addition of stop solution, HCl—H2SO4 mixture (0.1 ml/well) (1N HCl, 3N H2SO4). The results were analyzed by ELISA reader at OD450.
# (§4) The present invention identifies chemokine-binding peptides with biological activity. The binding specificities of the various peptides to the chemokines were determined by screening against BSA, Actin and Fibronectin-coated wells as negative controls in parallel experiments. The binding level of the peptides to the various chemokines, which reached at least two fold of the binding level to the control proteins, was considered a specific binding.
# (§5) The specific binding of the peptides was detected by screening methodology, using ELISA, as described in “Materials and Methods”, employing microplates coated with the various chemokines to be checked. The binding specificities of the various peptides to the various chemokines were determined by screening against BSA, Actin and Fibronectin-coated wells as negative controls in parallel experiments.
# (§6) Again, the specificity of the binding, either to one chemokine or more, was established by comparing binding level with the control binding level to non-related proteins, (shown in the Figure as a broken line).
# Eotaxin [1] = target: T2, Eotaxin (Homo sapiens, UniProt P51671); experiment: as above; settings: chemokine-coated wells, specific binding = at least two fold of binding to control proteins (BSA, Actin, Fibronectin)
# T2 construct: purchased PeproTech, Inc. 300-21
# Description: as §1, §2, §3, §4, §5, §6
# human IL-8 = target: T3, human IL-8 (Homo sapiens, UniProt P10145); experiment: as above; settings: chemokine-coated wells, specific binding = at least two fold of binding to control proteins (BSA, Actin, Fibronectin)
# T3 construct: human IL-8, (72 amino acids) (Cat. No. 200-08M); purchased PeproTech, Inc. 200-08M
# T3 sequence (P10145 28-99 limits assumed): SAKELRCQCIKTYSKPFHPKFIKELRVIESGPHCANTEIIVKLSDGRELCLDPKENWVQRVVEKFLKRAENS
# Description: as §1, §2, §3, §4, §5, §6
# SDF-1α = target: T4, SDF-1α (Homo sapiens, UniProt P48061); experiment: as above; settings: chemokine-coated wells, specific binding = at least two fold of binding to control proteins (BSA, Actin, Fibronectin)
# T4 construct: purchased PeproTech, Inc. 300-28A
# Description: as §1, §2, §3, §4, §5, §6
# IL-8 = target: T5, IL-8 (Homo sapiens, UniProt P10145); experiment: Biovalidation: laminar flow assay, chemokine and VCAM-1 activated adhesion of T cells; format: cell-based; parameters: key to Level of Antagonistic Effect / Level of Effect: + 20%; ++ 50%; +++ 100%; − No effect; settings: VCAM-1; for Level of Antagonistic Effect: Chemokine checked IL-8, T cells, peptide 10 μg/ml; for Abolishment of the activity of IL-8: T cell adhesion under flow
# T5 construct: human IL-8, (72 amino acids) (Cat. No. 200-08M); purchased PeproTech, Inc. 200-08M
# T5 sequence (P10145 28-99): T3 sequence (P10145 28-99 limits assumed)
# Eotaxin [2] = target: T2, Eotaxin; experiment: as above; format: cell-based; settings: VCAM-1
# MIG [3] = target: T6, MIG (Homo sapiens, UniProt Q07325); experiment: ELISA analysis of the synthetic chemokine-binding peptide; settings: chemokine-coated wells, specific binding = at least two fold of binding to control proteins (BSA, Actin, Fibronectin)
# T6 construct: purchased PeproTech, Inc. 300-26
# T6 sequence (Q07325 23-125): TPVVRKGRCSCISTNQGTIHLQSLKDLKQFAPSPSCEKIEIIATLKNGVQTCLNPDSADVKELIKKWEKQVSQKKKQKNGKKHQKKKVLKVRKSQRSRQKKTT
# Description: as §1, §2, §3, §4, §5, §6
# [4] = system: chemokines MCP-1, SDF-1α, MIG, Eotaxin and IL-8; experiment: ELISA binding to the panel of chemokines (chemokine not singled out); parameters: species or system human; settings: five chemokines tested, control binding level = one fold
# Description: as §1, §2, §3
# The present invention identifies chemokine-binding peptides with biological activity. The binding specificities of the various peptides to the chemokines were determined by screening against BSA, Actin and Fibronectin-coated wells as negative controls in parallel experiments. […]
# The specific binding of the peptides was detected by screening methodology, using ELISA, as described in “Materials and Methods”, employing microplates coated with the various chemokines to be checked. The binding specificities of the various peptides to the various chemokines were determined by screening against BSA, Actin and Fibronectin-coated wells as negative controls in parallel experiments. […]
# MIG [5] = target: T6, MIG; experiment: Biovalidation: laminar flow assay, chemokine and VCAM-1 activated adhesion of T cells; format: cell-based; settings: for Level of Antagonistic Effect: Chemokine checked MIG, T cells, peptide 10 μg/ml; for Level of Antagonistic Effect / Reduction of the activity of MIG: VCAM-1; for Reduction of the activity of MIG: T cell adhesion under flow
# Description: 50 ml blood was added to 10 ml Dextran (Dextran T-500 6% w/v) in PBS (phosphate buffer saline), and 7 ml citrate buffer (25 g citrate, 8 g citric acid in 500 ml PBS). The solution was incubated for 30 min at 25° C. 10 ml Ficoll 1077 (Sigma) was added to the bottom of the tube. The tube was then centrifuged at 2,000 rpm for 30 min, at 18° C., (with the brake mode of the centrifuge off). The interphase was collected and washed twice with 8 ml PBS-5% FCS (fetal calf serum), followed by centrifugation at 1,400 rpm, for 5 min, at 18° C. The cells were re-suspended in PBS-5% FCS at a concentration less than 10^8/ml. 2 ml of the cell solution were applied and incubated for 45 min at 25° C. on a Perspex Nylon wool column, which was pre-soaked with PBS-5% FCS. Each column was washed with 8 ml PBS-5% FCS and the cells (T-cells and erythrocytes) were eluted by 50 ml of 5 mM EDTA in PBS. A red pellet was obtained by centrifugation at 1,400 rpm, at 4° C., for 5 min, with the brake on. In order to perform lysis of the erythrocytes, the red pellet was re-suspended in 5 ml lysis-buffer (155 mM NH4Cl, 10 mM KHCO3, 0.1 mM EDTA, X0.1PBS) for 4 min, followed by immediate addition of 50 ml of PBS-EDTA.
# Following centrifugation at 1,400 rpm, at 4° C., for 5 min with brake on, the pellet was washed again with 50 ml PBS-EDTA and re-centrifuged under the same conditions. A white pellet was obtained and re-suspended in RPMI/10% FCS/L-glutamine/sodium pyruvate/antibiotics at a concentration of 3^X10^6 cells/ml. The cells were incubated for 2 h at 37° C., followed by collection of the non-adherent cells. The cells were ready for use in experiments after overnight incubation at 37° C. […]
# Laminar flow assays were performed as follows. Polystyrene plates (B.D) were coated with soluble VCAM-1 at 10 μg/ml in the presence of 2 μg/ml HSA carrier. The plates were washed three times with PBS and blocked with HSA (20 μg/ml in PBS) for 2 hrs at room temperature. Alternatively, washed plates were coated with 10 μg/ml MIG chemokine in PBS for 30 min at room temperature, before being blocked with HSA. The plates were assembled as the lower wall of a parallel wall flow chamber and mounted on the stage of an inverted microscope. The peptide, as described previously, (10 μg/ml) was allowed to settle on the substrate coated chamber wall for 10 min, at 37° C. and then washed. T cells (5×10^6/ml, purity >98%) were suspended in binding buffer, perfused into the chamber and allowed to settle on the substrate coated chamber wall for 1 min, at 37° C. Flow was initiated and increased in 2 to 2.5 fold increments every 5 sec. generating controlled shear stresses on the wall. Cells were visualized in a 20× objective of an inverted phase-contrast Diaphot Microscope (Nikon, Japan) and photographed with a long integration LIS-700 CCD video camera (Applitech; Holon, Israel), connected to a video recorder (AG-6730 S-VHS, Panasonic, Japan). The number of adherent cells resisting detachment by the elevated shear forces was determined after each interval by analysis of videotaped cell images, and was expressed as the percent of originally settled cells. All adhesion experiments were performed at least three times on multiple test fields.
# T1 sequence (P13500 24-99): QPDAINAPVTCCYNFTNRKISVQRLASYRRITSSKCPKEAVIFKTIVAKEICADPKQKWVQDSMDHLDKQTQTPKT
# T4 sequence (P48061 22-89 limits assumed): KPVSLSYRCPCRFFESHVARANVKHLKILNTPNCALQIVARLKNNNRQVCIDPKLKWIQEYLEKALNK
# T2 sequence (P51671 24-97): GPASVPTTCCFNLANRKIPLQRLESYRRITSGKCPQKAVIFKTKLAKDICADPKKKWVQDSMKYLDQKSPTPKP
sequence,measurement,setting,value
LDYPIPQTVLHH [BKT-P46],Bound chemokines (at least): MCP-1,Human MCP-1,MCP-1
LGFDPTSTRFYT [BKT-P22],Bound chemokines (at least): Eotaxin,Eotaxin [1],bind and found to bind Eotaxin
LLADTTHHRPWP [BKT-P37],Bound chemokines (at least): IL-8,human IL-8,IL-8
SAGHIHEAHRPL [BKT-P39],Bound chemokines (at least): Eotaxin,Eotaxin [1],"Eotaxin,"
same,Bound chemokines (at least): SDF-1α,SDF-1α,SDF-1α
same,Bound chemokines (at least): IL-8,human IL-8,IL-8
same,Level of Antagonistic Effect,IL-8,−
same,Abolishment of the activity of IL-8,IL-8,no effect
same,Level of Antagonistic Effect,"Eotaxin [2]; Chemokine checked Eotaxin, T cells, peptide 10 μg/ml",+++ (+++ 100%)
same,Blocking of the activity of Eotaxin,Eotaxin [2]; T cell adhesion under flow,100%
SAISDHRAHRSH [BKT-P40],Bound chemokines (at least): IL-8,human IL-8,IL-8
SFWHHHSPRSPL [BKT-P31],Bound chemokines (at least): Eotaxin,Eotaxin [1],Eotaxin
SIFAHQTPTHKN [BKT-P3],Bound chemokines (at least): MCP-1,Human MCP-1,MCP-1
same,Bound chemokines (at least): MIG,MIG [3],highest binding level and MIG
same,Bound chemokines (at least): IL-8,human IL-8,IL-8
same,Binding to the various chemokines,[4],binds to all five chemokines tested
same,Level of Antagonistic Effect,MIG [5],+++ (+++ 100%)
same,Percentage of arrested cells,"MIG [5]; MIG plus peptide (FIG. 4), MIG alone about 25-30%, control = VCAM-1 alone",dramatically reduced
same,Reduction of the activity of MIG,MIG [5],complete arrest
same,Level of Antagonistic Effect,IL-8,+++ (+++ 100%)
same,Abolishment of the activity of IL-8,IL-8,complete arrest
SIPSHSIHSAKA [BKT-P2],Bound chemokines (at least): Eotaxin,Eotaxin [1],Eotaxin
same,Bound chemokines (at least): MCP-1,Human MCP-1,"MCP-1,"
same,Bound chemokines (at least): IL-8,human IL-8,IL-8
same,Level of Antagonistic Effect,MIG [5],++ (++ 50%)
same,Reduction of the activity of MIG,MIG [5],about 50%
SQTLPYSNAPSP [BKT-P1],Bound chemokines (at least): SDF-1α,SDF-1α,bind and found to bind SDF-1α
same,Binding to the various chemokines,[4],bind specifically to various chemokines; also recorded: specifically to more than one chemokine
SVQTRPLFHSHF [BKT-P34],Bound chemokines (at least): Eotaxin,Eotaxin [1],Eotaxin
TRLVPSRYYHHP [BKT-P47],Bound chemokines (at least): MCP-1,Human MCP-1,MCP-1
VHTSLLQKHPLP [BKT-P26],Bound chemokines (at least): MCP-1,Human MCP-1,MCP-1
WSAHIVPYSHKP [BKT-P52],Bound chemokines (at least): MCP-1,Human MCP-1,MCP-1
YATQHNWRLKHE [BKT-P53],Bound chemokines (at least): MCP-1,Human MCP-1,MCP-1
